Measurements published in patent US20110118131A1 (published 2011).
Substitutions are numbered along the chain they refer to. In names and notes the source's numbering stands.

T1: Ep-CAM (UniProt P16422 24-265, limits assumed)
T1 construct: Antigen of the Biacore analysis of ING-1 variants
T1 sequence (looked up): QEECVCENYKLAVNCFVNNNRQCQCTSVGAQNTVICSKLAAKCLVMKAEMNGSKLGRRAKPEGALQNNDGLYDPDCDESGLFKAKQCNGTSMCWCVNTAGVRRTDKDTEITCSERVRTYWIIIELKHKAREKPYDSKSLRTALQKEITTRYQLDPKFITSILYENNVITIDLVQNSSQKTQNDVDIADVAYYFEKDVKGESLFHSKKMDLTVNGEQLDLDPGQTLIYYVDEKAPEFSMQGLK

B1: ING-1 heavy chain D104F (Fab, V domains shown)
VH: QIQLVQSGPELKKPGETVKISCKASGYTFTKYGMNWVKQAPGKGLKWMGWINTYTEEPTYGDDFKGRFAFSLETSASTANLQINNLKSEDTATYFCARFGSAVFYWGQGTSVTVSS
VL: DIVMTQAAFSNPVTLGTSGSISCRSSKSLLHSNGITYLYWYLQKPGQSPQLLIYQMSNLASGVPDRFSSSGSGTDFTLRISRVEAEDVGVYYCAQNLELPRTFGGGTKLEMKR
B2: ING-1 heavy chain D104K (Fab, V domains shown)
VH: B1 VH with F104K
VL: B1 VL
B3: ING-1 heavy chain G100E (Fab, V domains shown)
VH: B1 VH with G100E, F104D
VL: B1 VL
B4: ING-1 heavy chain D104Y (Fab, V domains shown)
VH: B1 VH with F104Y
VL: B1 VL
B5: ING-1 heavy chain G100D (Fab, V domains shown)
VH: B1 VH with G100D, F104D
VL: B1 VL
B6: ING-1 heavy chain G100F (Fab, V domains shown)
VH: B1 VH with G100F, F104D
VL: B1 VL
B7: ING-1 heavy chain D104R (Fab, V domains shown)
VH: B1 VH with F104R
VL: B1 VL
B8: ING-1 heavy chain D104W (Fab, V domains shown)
VH: B1 VH with F104W
VL: B1 VL
B9: ING-1 heavy chain G33W (Fab, V domains shown)
VH: B1 VH with G33W, F104D
VL: B1 VL
B10: ING-1 heavy chain D104Q (Fab, V domains shown)
VH: B1 VH with F104Q
VL: B1 VL
B11: ING-1 heavy chain G33H (Fab, V domains shown)
VH: B1 VH with G33H, F104D
VL: B1 VL
B12: ING-1 heavy chain G33E (Fab, V domains shown)
VH: B1 VH with G33E, F104D
VL: B1 VL
B13: ING-1 heavy chain G33D (Fab, V domains shown)
VH: B1 VH with G33D, F104D
VL: B1 VL
B14: ING-1 heavy chain G100H (Fab, V domains shown)
VH: B1 VH with G100H, F104D
VL: B1 VL
B15: ING-1 heavy chain E57Q (Fab, V domains shown)
VH: B1 VH with E57Q, F104D
VL: B1 VL
B16: ING-1 heavy chain G33K (Fab, V domains shown)
VH: B1 VH with G33K, F104D
VL: B1 VL
B17: ING-1 heavy chain G33N (Fab, V domains shown)
VH: B1 VH with G33N, F104D
VL: B1 VL
B18: ING-1 heavy chain G33Q (Fab, V domains shown)
VH: B1 VH with G33Q, F104D
VL: B1 VL
B19: ING-1 heavy chain D104H (Fab, V domains shown)
VH: B1 VH with F104H
VL: B1 VL
B20: ING-1 heavy chain G33R (Fab, V domains shown)
VH: B1 VH with G33R, F104D
VL: B1 VL
B21: XPA23 heavy chain V50L (Fab, V domains shown)
VH: EVQLLESGGGLVQPGGSLRLSCAASGFTFSKYFMFWVRQAPGKGLEWVSLISPSGGMTRYADSVKGRFTISRDNSKNTLYLQMNSLRAEDTAVYYCARVGYGGNSDYWGQGTLVTVSS
VL: DIQMTQSPSSVSASVGDRLTIICRASQDINRWLAWYQQTPGNAPKLLIHSATSLQSGVPSRFSGSGSGTDFTLTINSLQPEDFATYYCQQADSFPLTFGGGTKVEIK
notes: Fab, periplasmic extract; also called C5A V50L
B22: XPA23 heavy chain Y107L (Fab, V domains shown)
VH: B21 VH with L50V, Y107L
VL: B21 VL
notes: Fab, periplasmic extract; also called C5A Y107L
B23: XPA23 heavy chain V99A (Fab, V domains shown)
VH: B21 VH with L50V, V99A
VL: B21 VL
notes: Fab, periplasmic extract; also called C5A V99A
B24: XPA23 heavy chain V99T (Fab, V domains shown)
VH: B21 VH with L50V, V99T
VL: B21 VL
notes: Fab, periplasmic extract; also called C5A V99T
B25: XPA23 heavy chain Y32P (Fab, V domains shown)
VH: B21 VH with Y32P, L50V
VL: B21 VL
notes: Fab, periplasmic extract; also called C5A Y32P
B26: XPA23 heavy chain Y101A (Fab, V domains shown)
VH: B21 VH with L50V, Y101A
VL: B21 VL
notes: Fab, periplasmic extract; also called C5A Y101A
B27: XPA23 heavy chain Y107A (Fab, V domains shown)
VH: B21 VH with L50V, Y107A
VL: B21 VL
notes: Fab, periplasmic extract; also called C5A Y107A
B28: XPA23 heavy chain Y32L (Fab, V domains shown)
VH: B21 VH with Y32L, L50V
VL: B21 VL
notes: Fab, periplasmic extract; also called C5A Y32L
B29: XPA23 heavy chain Y101V (Fab, V domains shown)
VH: B21 VH with L50V, Y101V
VL: B21 VL
notes: Fab, periplasmic extract; also called C5A Y101V
B30: XPA23 heavy chain Y32T (Fab, V domains shown)
VH: B21 VH with Y32T, L50V
VL: B21 VL
notes: Fab, periplasmic extract; also called C5A Y32T
B31: XPA23 heavy chain Y101L (Fab, V domains shown)
VH: B21 VH with L50V, Y101L
VL: B21 VL
notes: Fab, periplasmic extract; also called C5A Y101L
B32: XPA23 heavy chain Y32G (Fab, V domains shown)
VH: B21 VH with Y32G, L50V
VL: B21 VL
notes: Fab, periplasmic extract; also called C5A Y32G
B33: XPA23 heavy chain Y32V (Fab, V domains shown)
VH: B21 VH with Y32V, L50V
VL: B21 VL
notes: Fab, periplasmic extract; also called C5A Y32V
B34: XPA23 heavy chain Y107G (Fab, V domains shown)
VH: B21 VH with L50V, Y107G
VL: B21 VL
notes: Fab, periplasmic extract; also called C5A Y107G
B35: XPA23 heavy chain Y107V (Fab, V domains shown)
VH: B21 VH with L50V, Y107V
VL: B21 VL
notes: Fab, periplasmic extract; also called C5A Y107V
B36: XPA23 heavy chain V50T (Fab, V domains shown)
VH: B21 VH with L50T
VL: B21 VL
notes: Fab, periplasmic extract; also called C5A V50T
B37: XPA23 heavy chain Y107P (Fab, V domains shown)
VH: B21 VH with L50V, Y107P
VL: B21 VL
notes: Fab, periplasmic extract; also called C5A Y107P
B38: XPA23 heavy chain Y101I (Fab, V domains shown)
VH: B21 VH with L50V, Y101I
VL: B21 VL
notes: Fab, periplasmic extract; also called C5A Y101I
B39: XPA23 heavy chain Y101P (Fab, V domains shown)
VH: B21 VH with L50V, Y101P
VL: B21 VL
notes: Fab, periplasmic extract; also called C5A Y101P
B40: XPA23 heavy chain Y107I (Fab, V domains shown)
VH: B21 VH with L50V, Y107I
VL: B21 VL
notes: Fab, periplasmic extract; also called C5A Y107I
B41: XPA23 heavy chain Y101T (Fab, V domains shown)
VH: B21 VH with L50V, Y101T
VL: B21 VL
notes: Fab, periplasmic extract; also called C5A Y101T
B42: XPA23 heavy chain Y107T (Fab, V domains shown)
VH: B21 VH with L50V, Y107T
VL: B21 VL
notes: Fab, periplasmic extract; also called C5A Y107T

Molecular target: T1, Ep-CAM
Experiment: Biacore, Fab periplasmic extract

| binding result | fold difference in affinity vs original [fold] | Binder |
| --- | --- | --- |
| no binding |  | B1 |
| no binding |  | B2 |
| no binding |  | B3 |
| no binding |  | B4 |
| no binding |  | B5 |
| no binding |  | B6 |
| no binding |  | B7 |
| no binding |  | B8 |
| no binding |  | B9 |
| no binding |  | B10 |
|  | 0.02 | B11 |
| no binding |  | B12 |
| no binding |  | B13 |
| no binding |  | B14 |
| no binding |  | B15 |
| no binding |  | B16 |
| no binding |  | B17 |
|  | 0.06 | B18 |
| no binding |  | B19 |
|  | 0.03 | B20 |

Molecular target: T2, IL-1β (UniProt P01584 117-269)
T2 construct: Antigen of XPA23
Experiment: Biacore, Fab periplasmic extract

| fold difference in affinity against the original [fold] | Binder |
| --- | --- |
| 0.09 | B21 |
| 0.86 | B22 |
| 0.03 | B23 |
| 0.1 | B24 |
| 0.68 | B25 |
| 0.04 | B26 |
| 0.83 | B27 |
| 0.75 | B28 |
| 0.09 | B29 |
| 0.8 | B30 |
| 1.91 | B31 |
| 1 | B32 |
| 1.07 | B33 |
| 0.1 | B34 |
| 0.93 | B35 |
| 0.03 | B36 |
| 0.04 | B37 |
| 0.83 | B38 |
| 0.04 | B39 |
| 0.96 | B40 |
| 0.06 | B41 |
| 0.83 | B42 |
